Results taken from patent US6685945.

What was measured:
[1] = test system: OmpL1-PhoA fusion protein [phosphatase: P00634]
[2] = biological target: OmpL1, 31 kD outer membrane protein of Leptospira alstoni (native protein) (Leptospira alstoni serovar grippotyphosa); test: immunoelectron microscopy of intact L. alstoni, protein G-colloidal gold (control serum)

Chain of OmpL1-PhoA fusion protein [phosphatase: P00634] (P00634 27-471): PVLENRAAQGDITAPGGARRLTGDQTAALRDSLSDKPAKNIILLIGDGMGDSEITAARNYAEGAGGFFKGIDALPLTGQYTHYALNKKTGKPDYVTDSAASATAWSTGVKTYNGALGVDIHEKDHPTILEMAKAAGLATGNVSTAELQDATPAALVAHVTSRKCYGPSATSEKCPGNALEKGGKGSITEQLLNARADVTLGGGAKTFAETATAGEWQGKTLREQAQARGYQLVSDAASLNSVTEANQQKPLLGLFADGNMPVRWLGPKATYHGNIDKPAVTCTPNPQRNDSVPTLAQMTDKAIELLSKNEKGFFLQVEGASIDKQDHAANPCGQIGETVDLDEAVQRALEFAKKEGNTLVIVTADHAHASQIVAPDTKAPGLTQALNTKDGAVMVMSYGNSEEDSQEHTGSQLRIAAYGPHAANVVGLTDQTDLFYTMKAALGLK

Substance	cleavage of the OmpL1-PhoA fusion protein in E. coli IT41 [1]	gold particles per twenty organisms (particles per twenty organisms) [2]
E. coli leader peptidase 1 (strain IT41, temperature sensitive mutation)	Cleavage of the OmpL1-PhoA fusion protein was demonstrated at the permissive temperature of 32° C., but not at the restrictive temperature of 37 °C	–
preimmune serum from the same rabbit as the anti-OmpL1 antiserum (antibody)	–	1
